B1: General negative regulator of transcription subunit 4 (Saccharomyces cerevisiae), P34909 (parent)
chain: MMNPHVQENLQAIHNALSNFDTSFLSEDEEDYCPLCIEPMDITDKNFFPCPCGYQICQFCYNNIRQNPELNGRCPACRRKYDDENVRYVTLSPEELKMERAKLARKEKERKHREKERKENEYTNRKHLSGTRVIQKNLVYVVGINPPVPYEEVAPTLKSEKYFGQYGKINKIVVNRKTPHSNNTTSEHYHHHSPGYGVYITFGSKDDAARCIAQVDGTYMDGRLIKAAYGTTKYCSSYLRGLPCPNPNCMFLHEPGEEADSFNKRELHNKQQAQQQSGGTAFTRSGIHNNISTSTAGSNTNLLSENFTGTPSPAAMRAQLHHDSHTNAGTPVLTPAPVPAGSNPWGVTQSATPVTSINLSKNSSSINLPTLNDSLGHHTTPTTENTITSTTTTTNTNATSHSHGSKKKQSLAAEEYKDPYDALGNAVDFLDARLHSLSNYQKRPISIKSNIIDEETYKKYPSLFSWDKIEASKKSDNTLANKLVEILAIKPIDYTASVVQFLQSVNVGVNDNITITDNTKTPTQPIRLQTVSQQIQPPLNVSTPPPGIFGPQHKVPIQQQQMGDTSSRNSSDLLNQLINGRKIIAGN

Variants of: B1
Details: with not1_yeast CDC39, P25655
not1_yeast CDC39, P25655, sequence (P25655 whole entry): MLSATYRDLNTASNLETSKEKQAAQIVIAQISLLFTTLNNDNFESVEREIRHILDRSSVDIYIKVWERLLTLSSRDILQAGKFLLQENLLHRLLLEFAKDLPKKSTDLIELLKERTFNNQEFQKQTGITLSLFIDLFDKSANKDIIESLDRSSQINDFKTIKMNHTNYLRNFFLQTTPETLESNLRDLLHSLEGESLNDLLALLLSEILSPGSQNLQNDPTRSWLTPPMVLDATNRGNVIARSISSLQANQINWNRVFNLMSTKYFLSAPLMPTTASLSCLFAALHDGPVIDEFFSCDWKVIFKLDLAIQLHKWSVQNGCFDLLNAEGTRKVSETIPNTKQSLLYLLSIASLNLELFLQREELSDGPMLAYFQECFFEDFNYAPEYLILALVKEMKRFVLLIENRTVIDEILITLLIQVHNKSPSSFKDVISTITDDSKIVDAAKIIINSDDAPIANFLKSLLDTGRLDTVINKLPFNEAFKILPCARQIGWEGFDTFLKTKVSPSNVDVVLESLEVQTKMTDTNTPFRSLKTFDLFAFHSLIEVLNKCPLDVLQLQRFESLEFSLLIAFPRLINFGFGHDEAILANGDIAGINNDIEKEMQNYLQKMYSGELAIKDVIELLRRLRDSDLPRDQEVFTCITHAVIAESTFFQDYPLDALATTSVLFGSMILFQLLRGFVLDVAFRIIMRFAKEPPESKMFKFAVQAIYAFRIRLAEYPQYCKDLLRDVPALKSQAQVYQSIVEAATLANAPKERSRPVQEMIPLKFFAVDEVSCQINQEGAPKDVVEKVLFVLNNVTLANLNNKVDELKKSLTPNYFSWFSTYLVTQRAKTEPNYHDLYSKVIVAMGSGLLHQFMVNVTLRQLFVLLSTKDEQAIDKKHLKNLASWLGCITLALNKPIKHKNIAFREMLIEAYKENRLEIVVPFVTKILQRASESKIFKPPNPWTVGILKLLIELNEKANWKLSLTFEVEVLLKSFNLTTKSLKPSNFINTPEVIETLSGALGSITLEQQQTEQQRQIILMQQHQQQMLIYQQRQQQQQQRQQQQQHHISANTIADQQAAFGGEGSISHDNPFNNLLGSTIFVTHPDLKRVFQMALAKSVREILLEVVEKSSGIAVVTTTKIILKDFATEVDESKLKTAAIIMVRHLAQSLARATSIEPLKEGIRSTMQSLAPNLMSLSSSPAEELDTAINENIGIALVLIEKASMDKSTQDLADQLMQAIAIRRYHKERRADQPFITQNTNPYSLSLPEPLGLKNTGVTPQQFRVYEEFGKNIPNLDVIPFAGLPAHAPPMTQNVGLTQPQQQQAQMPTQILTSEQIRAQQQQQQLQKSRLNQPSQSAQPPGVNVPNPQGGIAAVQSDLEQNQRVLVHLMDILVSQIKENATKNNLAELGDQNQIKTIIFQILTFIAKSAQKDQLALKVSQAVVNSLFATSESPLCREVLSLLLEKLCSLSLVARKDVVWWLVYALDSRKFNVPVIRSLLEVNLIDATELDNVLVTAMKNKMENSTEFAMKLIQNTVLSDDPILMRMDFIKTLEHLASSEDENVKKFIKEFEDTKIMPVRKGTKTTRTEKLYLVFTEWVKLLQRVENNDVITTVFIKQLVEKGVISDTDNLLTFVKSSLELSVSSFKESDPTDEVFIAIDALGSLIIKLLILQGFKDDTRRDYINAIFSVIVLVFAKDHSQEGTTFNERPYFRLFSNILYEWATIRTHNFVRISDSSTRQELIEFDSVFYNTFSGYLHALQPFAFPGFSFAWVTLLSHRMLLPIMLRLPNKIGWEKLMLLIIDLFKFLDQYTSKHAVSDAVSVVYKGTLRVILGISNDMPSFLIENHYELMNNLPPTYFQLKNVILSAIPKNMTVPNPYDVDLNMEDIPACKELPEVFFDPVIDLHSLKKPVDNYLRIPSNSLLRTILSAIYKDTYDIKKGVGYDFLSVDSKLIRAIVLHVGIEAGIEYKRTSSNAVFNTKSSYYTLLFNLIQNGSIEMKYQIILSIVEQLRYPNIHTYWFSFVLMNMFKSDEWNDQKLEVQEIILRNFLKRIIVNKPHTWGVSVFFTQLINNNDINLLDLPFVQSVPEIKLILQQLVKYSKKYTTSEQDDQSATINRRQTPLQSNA

Row | Variant | effect of a mutation on the interaction
1 | L463E;F464E | disrupting interaction
2 | F464E;W466E | disrupting interaction

Source: IntAct's records for PubMed 25914052
